One assay concerns the target T1, FcγRIIb (human, UniProt P31994 43-217).
T1 construct: extracellular domain; Soluble extracellular domain with C-terminal His tag, used as analyte; also called FcgRIIb; CD32B; not shown: His tag at the C terminus
T1 sequence (looked up): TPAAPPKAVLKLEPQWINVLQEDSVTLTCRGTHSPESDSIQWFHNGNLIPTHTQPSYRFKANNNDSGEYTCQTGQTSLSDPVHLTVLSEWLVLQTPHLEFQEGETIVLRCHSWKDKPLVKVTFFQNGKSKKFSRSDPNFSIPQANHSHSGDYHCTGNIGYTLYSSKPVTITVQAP
Briefly: SPR (Biacore), captured antibody, FcγR as analyte, relative binding. A general note: Surface plasmon resonance follows binding to a sensor surface in real time, without labels.

The target in another assay is T2, FcγRIa (human, UniProt P12314 16-292).
T2 construct: extracellular domain; Soluble extracellular domain with C-terminal His tag, used as analyte; also called FcgRI; CD64; not shown: His tag at the C terminus
The assay is described as above.

In assay [1] the target is T3, FcγRIIb extracellular domain with C-terminal His tag (human, UniProt P31994 43-217).
T3 construct: extracellular domain; also called 2b; FcgRIIb; not shown: His tag at the C terminus
T3 sequence (looked up): T1 sequence (looked up)
Kind of assay: SPR (Biacore), relative to GpH7-A5/GpH7-B3/GpL16-k0 = 100.

The target in assay [2] is T4, FcγRIIIa extracellular domain with C-terminal His tag (human, UniProt P08637 17-208).
T4 construct: extracellular domain; also called 3a; FcgRIIIa; not shown: His tag at the C terminus
Described as above.

T4 sequence (P08637 17-208): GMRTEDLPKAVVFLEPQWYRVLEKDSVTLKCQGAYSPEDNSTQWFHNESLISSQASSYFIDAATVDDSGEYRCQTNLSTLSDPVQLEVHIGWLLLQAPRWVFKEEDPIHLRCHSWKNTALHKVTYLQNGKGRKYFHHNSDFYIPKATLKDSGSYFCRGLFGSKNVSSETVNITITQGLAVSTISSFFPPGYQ
T2 sequence (P12314 16-292): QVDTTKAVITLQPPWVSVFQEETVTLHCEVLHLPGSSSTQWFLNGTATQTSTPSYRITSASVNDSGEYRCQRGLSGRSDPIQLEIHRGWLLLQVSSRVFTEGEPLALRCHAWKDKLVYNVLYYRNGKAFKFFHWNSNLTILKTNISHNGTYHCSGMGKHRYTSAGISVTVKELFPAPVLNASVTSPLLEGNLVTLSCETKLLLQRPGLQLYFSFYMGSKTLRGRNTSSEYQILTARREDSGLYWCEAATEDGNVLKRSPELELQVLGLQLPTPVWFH

B1: GpH7-A5/GpH7-B3 variant Y300_06M/GpL16-k0 (antibody, human IgG1, kappa)
heavy 1: not shown
heavy 2: not shown
light: DIVMTQSPLSLPVTPGEPASISCQASESLVHSNRNTYLHWYLQKPGQSPQLLIYKVSNRFSGVPDRFSGSGSGTDFTLKISRVEAEDVGVYYCSQNTHVPPTFGQGTKVEIERTVAAPSVFIFPPSDEQLKSGTASVVCLLNNFYPREAKVQWKVDNALQSGNSQESVTEQDSKDSTYSLSSTLTLSKADYEKHKVYACEVTHQGLSSPVTKSFNRGEC
notes: He Ab: mutation in one H chain only; also called He Ab
On to B1, for which the He/Con_2b with FcγRIIb is 84.3 % of GpH7-A5/GpH7-B3/GpL16-k0. In the assay with FcγRIa, the He/Con_1a is 112 % of GpH7-A5/GpH7-B3/GpL16-k0.

B2: GpH7-A5/GpH7-B3 variant H268_03V/GpL16-k0 (antibody, human IgG1, kappa)
heavy 1: not shown
heavy 2: not shown
light: B1 light
notes: IgG1, anti-glypican-3; also called He Ab
B2: the He/Con_2b in assay [1] was 114 % (control = 100). Also, the He/Con_3a in assay [2] was 92.3 % (control = 100).

B3: GpH7-A5/GpH7-B3 variant Y300_16H/GpL16-k0 (antibody, human IgG1, kappa)
heavy 1: not shown
heavy 2: not shown
light: B1 light
notes: as for B1
As to B3, the He/Con_2b with FcγRIIb is 87 % of GpH7-A5/GpH7-B3/GpL16-k0. Also, in the assay with FcγRIa, the He/Con_1a was 111 % of GpH7-A5/GpH7-B3/GpL16-k0.

B4: GpH7-A5/GpH7-B3 variant H268_05P/GpL16-k0 (antibody, human IgG1, kappa)
heavy 1: not shown
heavy 2: not shown
light: B1 light
notes: as for B2
For the molecule B4, the He/Con_2b in assay [1] was 116 % (control = 100). For the same molecule, in assay [2], the He/Con_3a was 76.4 % (control = 100).

B5: GpH7-A5/GpH7-B3 variant H268_01G/GpL16-k0 (antibody, human IgG1, kappa)
heavy 1: not shown
heavy 2: not shown
light: B1 light
notes: as for B2
With B5, the He/Con_2b in assay [1] is 144 % (control = 100). For the same molecule, the He/Con_3a in assay [2] is 96.7 % (control = 100).

B6: GpH7-A5/GpH7-B3 variant A327_01G/GpL16-k0 (antibody, human IgG1, kappa)
heavy 1: not shown
heavy 2: not shown
light: B1 light
notes: as for B2
For B6, the He/Con_2b in assay [1] was 116 % (control = 100). Moreover, the He/Con_3a in assay [2] is 72.4 % (control = 100).

B7: GpH7-A5/GpH7-B3 variant Y300_08L/GpL16-k0 (antibody, human IgG1, kappa)
heavy 1: not shown
heavy 2: not shown
light: B1 light
notes: as for B1
Take B7: the He/Con_2b with FcγRIIb was 73.6 % of GpH7-A5/GpH7-B3/GpL16-k0. For the same molecule, the He/Con_1a in the assay with FcγRIa is 113 % of GpH7-A5/GpH7-B3/GpL16-k0.

B8: GpH7-A5/GpH7-B3 variant H268_15Y/GpL16-k0 (antibody, human IgG1, kappa)
heavy 1: not shown
heavy 2: not shown
light: B1 light
notes: as for B2
For B8, in assay [1], the He/Con_2b is 106 % (control = 100). Moreover, the He/Con_3a in assay [2] was 97.5 % (control = 100).

B9: GpH7-A5/GpH7-B3 variant Y300_12R/GpL16-k0 (antibody, human IgG1, kappa)
heavy 1: not shown
heavy 2: not shown
light: B1 light
notes: as for B1
Turning to B9, the He/Con_2b in the assay with FcγRIIb is 41.2 % of GpH7-A5/GpH7-B3/GpL16-k0. For the same molecule, in the assay with FcγRIa, the He/Con_1a was 105 % of GpH7-A5/GpH7-B3/GpL16-k0.

B10: GpH7-A5/GpH7-B3 variant Y300_11K/GpL16-k0 (antibody, human IgG1, kappa)
heavy 1: not shown
heavy 2: not shown
light: B1 light
notes: as for B1
Turning to B10, the He/Con_2b with FcγRIIb is 51.6 % of GpH7-A5/GpH7-B3/GpL16-k0. Also, in the assay with FcγRIa, the He/Con_1a is 107 % of GpH7-A5/GpH7-B3/GpL16-k0.

B11: GpH7-A5/GpH7-B3 variant Y300_07I/GpL16-k0 (antibody, human IgG1, kappa)
heavy 1: not shown
heavy 2: not shown
light: B1 light
notes: as for B1
Take B11: the He/Con_2b with FcγRIIb was 74.5 % of GpH7-A5/GpH7-B3/GpL16-k0. Also, in the assay with FcγRIa, the He/Con_1a was 108 % of GpH7-A5/GpH7-B3/GpL16-k0.

B12: GpH7-A5/GpH7-B3 variant K326_16H/GpL16-k0 (antibody, human IgG1, kappa)
heavy 1: not shown
heavy 2: not shown
light: B1 light
notes: as for B2
As for B12, the He/Con_2b in assay [1] was 119 % (control = 100). Besides, in assay [2], the He/Con_3a is 96.1 % (control = 100).

B13: GpH7-A5/GpH7-B3 variant Y300_14T/GpL16-k0 (antibody, human IgG1, kappa)
heavy 1: not shown
heavy 2: not shown
light: B1 light
notes: as for B1
Regarding B13, the He/Con_2b with FcγRIIb was 55.6 % of GpH7-A5/GpH7-B3/GpL16-k0. Besides, the He/Con_1a in the assay with FcγRIa is 112 % of GpH7-A5/GpH7-B3/GpL16-k0.

B14: GpH7-A5/GpH7-B3 variant Y300_20W/GpL16-k0 (antibody, human IgG1, kappa)
heavy 1: not shown
heavy 2: not shown
light: B1 light
notes: as for B1
Regarding B14, in the assay with FcγRIIb, the He/Con_2b is 84.1 % of GpH7-A5/GpH7-B3/GpL16-k0. In addition, in the assay with FcγRIa, the He/Con_1a is 112 % of GpH7-A5/GpH7-B3/GpL16-k0.

B15: GpH7-A5/GpH7-B3 variant H268_20W/GpL16-k0 (antibody, human IgG1, kappa)
heavy 1: not shown
heavy 2: not shown
light: B1 light
notes: as for B2
As for B15, in assay [1], the He/Con_2b is 111 % (control = 100). For the same molecule, the He/Con_3a in assay [2] is 82.8 % (control = 100).

B16: GpH7-A5/GpH7-B3 variant Y300_13S/GpL16-k0 (antibody, human IgG1, kappa)
heavy 1: not shown
heavy 2: not shown
light: B1 light
notes: as for B1
B16: the He/Con_2b in the assay with FcγRIIb was 53.9 % of GpH7-A5/GpH7-B3/GpL16-k0. Besides, the He/Con_1a with FcγRIa is 111 % of GpH7-A5/GpH7-B3/GpL16-k0.

B17: GpH7-A5/GpH7-B3 variant Y300_09D/GpL16-k0 (antibody, human IgG1, kappa)
heavy 1: not shown
heavy 2: not shown
light: B1 light
notes: as for B1
With B17, the He/Con_2b in the assay with FcγRIIb was 93.2 % of GpH7-A5/GpH7-B3/GpL16-k0. Moreover, the He/Con_1a with FcγRIa was 112 % of GpH7-A5/GpH7-B3/GpL16-k0.

The values are drawn from patent publication US20150344570A1 (published 2015).
